B2: AP-Am-Nogo-B (alkaline phosphatase fusion protein with residues 1-200 at the amino terminus of human Nogo-B) (ligand, UniProt Q9NQC3-2 1-200, looked up)
chain: MEDLDQSPLVSSSDSPPRPQPAFKYQFVREPEDEEEEEEEEEEDEDEDLEELEVLERKPAAGLSAAPVPTAPAAGAPLMDFGNDFVPPAPRGPLPAAPPVAPERQPSWDPSPVSSTVPAPSPLSAAAVSPSKLPEDDEPPARPPPPPPASVSPQAEPVWTPPAPAPAAPPSTPAAPKRRGSSGSVVVDLLYWRDIKKTGV
notes: range 1-200; also called full-length AP-Am-Nogo-B; APNogo200; not shown: placental alkaline phosphatase coding region of vector pcAP-5
B4: Nogo-B receptor (NgBR), endogenous, on human umbilical vein endothelial cells (HUVEC) (receptor)
chain: SWLRVRFGTWNWIWRRCCRAASAAVLAPLGFTLRKPPAVGRNRRHHRHPRGGSCLAAAHHRMRWRADGRSLEKLPVHMGLVITEVEQEPSFSDIASLVVWCMAVGISYISVYDHQGIFKRNNSRLMDEILKQQQELLGLDCSKYSPEFANSNDKDDQVLNCHLAVKVLSPEDGKADIVRAAQDFCQLVAQKQKRPTDLDVDTLASLLSSNGCPDPDLVLKFGPVDSTLGFLPWHIRLTEIVSLPSHLNISYEDFFSALRQYAACEQRLGK
notes: The assays were done on untransfected HUVEC; also called native HUVEC; endogenous NgBR
B5: human Nogo-B receptor (NgBR), expressed from the cloned cDNA on transfected COS-7 or CHO cells (receptor)
chain: SWLRVRFGTWNWIWRRCCRAASAAVLAPLGFTLRKPPAVGRNRRHHRHPRGGSCLAAAHHRMRWRADGRSLEKLPVHMGLVITEVEQEPSFSDIASLVVWCMAVGISYISVYDHQGIFKRNNSRLMDEILKQQQELLGLDCSKYSPEFANSNDKDDQVLNCHLAVKVLSPEDGKADIVRAAQDFCQLVAQKQKRPTDLDVDTLASLLSSNGCPDPDLVLKFGPVDSTLGFLPWHIRLTEIVSLPSHLNISYEDFFSALRQYAACEQRLGK
notes: also called Am-Nogo receptor; Am-NgR

For assay [1], the target named is B2. Briefly: blocking of AP-Am-Nogo-B binding to endothelial cells (FIG. 34).
Assay [2] addresses B4. Kind of assay: AP-fusion binding to HUVEC at 4 C, AP activity read-out, Scatchard plot (FIGS. 4 and 5). The procedure:
(§1) To detect AP-Am-Nogo-B binding, cultures were washed with Hanks' balanced salt solution (HBSS) containing 20 mM HEPES, pH 7.5, and 1 mg/mL BSA (HBH). The plates were then incubated with AP-Am-Nogo-B in DMEM containing 20 mM Hepes, pH 7.5, and 1 mg/mL BSA for 2 hours at 4° C. The bound AP-Am-Nogo-B was detected by using the Blue Substrate kit (Vector Laboratories). The blue staining was examined by using the ODYSSEY Infrared Imaging System (Li-Cor, Lincoln, Nebr.) and confirmed by microscopy. Alternatively, the bound AP-Am-Nogo-B was extracted with Triton X-100, and AP activity was colorimetrically quantified by using p-nitrophenyl phosphate (Sigma) as substrate after heat inactivation of endogenous AP. Non-specific binding was determined by measuring binding in the presence of a 100-fold molar excess of recombinant Am-Nogo-B lacking the AP fusion protein. Specific binding was determined by subtracting the non-specific binding from total binding. For determination of apparent Kd, the binding of AP-Am-Nogo-B was measured in triplicate as described above and the Kd value was quantified by using the Scatchard plot program of GraphPad PRISM (one-site binding, linear regression) using the ratio of bound ligand to free ligand as the y axis and bound ligand (pM) as the x axis.

The target of assay [3] is B5. Briefly: AP-fusion binding to CHO cells transiently transfected with NgBR cDNA, Scatchard plot (FIG. 7). The procedure: as §1
In assay [4] the target is B5. Kind of assay: surface binding of AP proteins to CHO cells expressing NgBR (FIG. 14).
Assay [5] addresses B4. Kind of assay: surface binding of AP proteins to HUVEC (FIG. 15).
The target in assay [6] is T1, AP (recombinant alkaline phosphatase alone) (UniProt P05187 23-511).
T1 construct: Control protein without a Nogo part; also called AP alone
Briefly: surface binding of AP proteins to HUVEC (FIG. 12).

Assay [7] deals with T1, AP (recombinant alkaline phosphatase …). Kind of assay: AP-fusion binding to COS cells transfected with the NgBR cDNA, AP staining (FIG. 6). On the procedure: as §1, with “axis. […]” for “axis.”
For assay [8], the target named is B4. Kind of assay: surface binding of AP proteins to HUVEC (FIG. 12).
Assay [9] concerns the target B5. Briefly: surface binding of AP proteins to CHO cells expressing NgBR (FIG. 11).

T1 sequence (P05187 23-511): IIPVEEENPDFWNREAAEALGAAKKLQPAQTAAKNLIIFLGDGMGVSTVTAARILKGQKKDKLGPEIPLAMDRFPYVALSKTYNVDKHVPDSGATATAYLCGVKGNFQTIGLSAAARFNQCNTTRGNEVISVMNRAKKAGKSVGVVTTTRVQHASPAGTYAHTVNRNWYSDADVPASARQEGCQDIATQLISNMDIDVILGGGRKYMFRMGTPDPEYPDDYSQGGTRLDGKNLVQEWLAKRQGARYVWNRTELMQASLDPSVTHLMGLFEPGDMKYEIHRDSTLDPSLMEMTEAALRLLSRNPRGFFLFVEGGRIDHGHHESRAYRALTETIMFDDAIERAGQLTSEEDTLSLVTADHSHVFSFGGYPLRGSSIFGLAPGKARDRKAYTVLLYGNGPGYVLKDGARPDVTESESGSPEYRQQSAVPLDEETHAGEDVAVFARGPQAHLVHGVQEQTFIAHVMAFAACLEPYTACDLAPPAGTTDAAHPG

B1: mFc-ecto (Fc fusion of amino acids 52-116 of NgBR, HA- and heptahistidine-tagged) (Fc fusion)
chain: LGFTLRKPPAVGRNRRHHRHPRGGSCLAAAHHRMRWRADGRSLEKLPVHMGLVITEVEQEPSFSD
notes: Purified from conditioned media of mammalian cells; also called mFc fusion with the NgBR domain; mFc-NgBR-ectodomain; not shown: mFc, the Fc fragment of IgG; HA tag; heptahistidine tag
Take B1: in assay [1], the binding result was “binds”.
By Kd is commonly meant the concentration at which binding is half-saturated. For the molecule B2, the Kd came out at 9.7 nM in assay [2] and 2.74 nM in assay [3].

B3: AP-Nogo-A (59-172) (ligand, UniProt Q9NQC3 59-172, looked up)
chain: PAAGLSAAPVPTAPAAGAPLMDFGNDFVPPAPRGPLPAAPPVAPERQPSWDPSPVSSTVPAPSPLSAAAVSPSKLPEDDEPPARPPPPPPASVSPQAEPVWTPPAPAPAAPPST
notes: also called AP-Am-Nogo-A domains; not shown: alkaline phosphatase part of the AP fusion
As for B3, the binding result in [4] and in [5] was “no binding” in each case.
As for B4, the binding result in [6] was “no binding”.
For the molecule B5, the binding result in [7] is on record as “no binding”.

B6: AP-Nogo-B (amino acids 1-180) (ligand, UniProt Q9NQC3-2 1-180, looked up)
chain: MEDLDQSPLVSSSDSPPRPQPAFKYQFVREPEDEEEEEEEEEEDEDEDLEELEVLERKPAAGLSAAPVPTAPAAGAPLMDFGNDFVPPAPRGPLPAAPPVAPERQPSWDPSPVSSTVPAPSPLSAAAVSPSKLPEDDEPPARPPPPPPASVSPQAEPVWTPPAPAPAAPPSTPAAPKRRG
notes: range 1-180; Construction not described; also called AP-Nogo-B (1-180); not shown: alkaline phosphatase part of the AP fusion
With B6, the binding result in assay [8] and in assay [9] was “no binding” throughout.

The record behind these values is US20090305971A1 (YALE UNIVERSITY, published 2009).
